Measured values from patent publication US20090208522A1.
“And” between values parts separate entries of the source, which are not always exact repeats. Equal values may be shown once. One block for each substance: values may come before it.

What was measured:
[1] = biological target: DJ5 peptide (GDF8 active region peptide 327-346) (human); assay: ELISA, peptide coated 500 ng/well, antibody diluted 1:40
[2] = biological target: DJ6 peptide (GDF8 active region peptide 342-361) (human); assay: as above
[3] = biological target: DJ3 peptide (GDF8 active region peptide 297-316) (human); assay: as above
[4] = biological target: DJ2 peptide (GDF8 active region peptide 282-301) (human); assay: as above
[5] = biological target: DJ1 peptide (GDF8 active region peptide 267-286) (human); assay: as above
[6] = biological target: DJ7 peptide (GDF8 active region peptide 357-375) (human); assay: as above
[7] = biological target: DJ4 peptide (GDF8 active region peptide 312-331) (human); assay: as above
[8] = biological target: TMV-FV7 (DJ5(12)-U1-GPAT coat protein fusion, from pLSB-FV7); assay: DAS ELISA, virion captured by PVAS 135D
[9] = biological target: DJ5 peptide (GDF8 active region peptide 327-346) (human); assay: ELISA, peptide coated 500 ng/well, antibody diluted 1:20
[10] = biological target: DJ6 peptide (GDF8 active region peptide 342-361) (human); assay: as above
[11] = biological target: DJ3 peptide (GDF8 active region peptide 297-316) (human); assay: as above
[12] = biological target: DJ2 peptide (GDF8 active region peptide 282-301) (human); assay: as above
[13] = biological target: DJ1 peptide (GDF8 active region peptide 267-286) (human); assay: as above
[14] = biological target: DJ7 peptide (GDF8 active region peptide 357-375) (human); assay: as above
[15] = biological target: DJ4 peptide (GDF8 active region peptide 312-331) (human); assay: as above
[16] = biological target: TMV-FV7 (DJ5(12)-U1-GPAT coat protein fusion, from pLSB-FV7); assay: DAS ELISA, PVAS 135D capture
[17] = biological target: DJ5 peptide (GDF8 active region peptide 327-346) (human); assay: ELISA, peptide coated 500 ng/well, antibody diluted 1:80
[18] = biological target: DJ6 peptide (GDF8 active region peptide 342-361) (human); assay: as above
[19] = biological target: DJ3 peptide (GDF8 active region peptide 297-316) (human); assay: as above
[20] = biological target: DJ2 peptide (GDF8 active region peptide 282-301) (human); assay: as above
[21] = biological target: DJ1 peptide (GDF8 active region peptide 267-286) (human); assay: as above
[22] = biological target: DJ7 peptide (GDF8 active region peptide 357-375) (human); assay: as above
[23] = biological target: DJ4 peptide (GDF8 active region peptide 312-331) (human); assay: as above
[24] = biological target: TMV-FV7 (DJ5(12)-U1-GPAT coat protein fusion, from pLSB-FV7); assay: indirect ELISA, endpoint dilution
[25] = biological target: Purified CHO-derived FLAG-tagged human GDF8 prohormone (precursor GDF8) (human) (UniProt O14793); assay: direct ELISA, response per pmole
[26] = biological target: Purified CHO-derived FLAG-tagged human GDF8 prohormone (precursor GDF8) (human) (UniProt O14793); assay: ELISA, prohormone coated 250 ng/well, antibody diluted 1:40
[27] = biological target: DJ5 (20) peptide conjugated to BSA (human); assay: indirect ELISA, conjugate coated at 5 ug/mL
[28] = biological target: Purified CHO-derived FLAG-tagged human GDF8 prohormone (precursor GDF8) (human) (UniProt O14793); assay: indirect ELISA, proGDF8FLAG coated at 5 ug/mL
[29] = biological target: Purified CHO-derived FLAG-tagged human GDF8 prohormone (precursor GDF8) (human) (UniProt O14793); assay: indirect ELISA
[30] = biological target: TMV-FV7 (DJ5(12)-U1-GPAT coat protein fusion, from pLSB-FV7); assay: DAS ELISA, virion captured by PVAS-135D
[31] = biological target: TMV U1 coat protein / wild-type TMV U1 virus (tobacco mosaic virus, strain U1) (UniProt P69687); assay: DAS ELISA, virion captured by PVAS-135D
[32] = biological target: GDF8 protein (R&D Systems Inc.) (UniProt O14793); assay: cell-based or functional assay
[33] = biological target: Purified CHO-derived FLAG-tagged human GDF8 prohormone (precursor GDF8) (human) (UniProt O14793); assay: ELISA, prohormone coated 250 ng/well, antibody diluted 1:80
[34] = biological target: TMV U5 coat protein / TMV U5 virus (tobacco mild green mosaic virus (TMV U5)); assay: indirect ELISA, antigen coated at 5 ug/mL
[35] = biological target: TMV-FV7 (DJ5(12)-U1-GPAT coat protein fusion, from pLSB-FV7); assay: indirect ELISA, antigen coated at 5 ug/mL
[36] = biological target: TMV U1 coat protein / wild-type TMV U1 virus (tobacco mosaic virus, strain U1) (UniProt P69687); assay: indirect ELISA, antigen coated at 5 ug/mL
[37] = biological target: Purified CHO-derived FLAG-tagged human GDF8 prohormone (precursor GDF8) (human) (UniProt O14793); assay: ELISA, prohormone coated 250 ng/well, antibody diluted 1:20

Substance: Rat monoclonal antibody MAB788 (R&D Systems, anti-mouse GDF8)
ELISA reactivity (OD 405/minute x 1000) (OD405/min x 1000) [1]: 118
ELISA reactivity (OD 405/minute x 1000) (OD405/min x 1000) [2]: 0
ELISA reactivity (OD 405/minute x 1000) (OD405/min x 1000) [3]: 0
ELISA reactivity (OD 405/minute x 1000) (OD405/min x 1000) [4]: 0
ELISA reactivity (OD 405/minute x 1000) (OD405/min x 1000) [5]: 0
ELISA reactivity (OD 405/minute x 1000) (OD405/min x 1000) [6]: 0
ELISA reactivity (OD 405/minute x 1000) (OD405/min x 1000) [7]: 0
endpoint dilution (reciprocal dilution) [8]: 7290
ELISA reactivity (OD 405/minute x 1000) (OD405/min x 1000) [9]: 133
ELISA reactivity (OD 405/minute x 1000) (OD405/min x 1000) [10]: 0
ELISA reactivity (OD 405/minute x 1000) (OD405/min x 1000) [11]: 0
ELISA reactivity (OD 405/minute x 1000) (OD405/min x 1000) [12]: 0
ELISA reactivity (OD 405/minute x 1000) (OD405/min x 1000) [13]: 4
ELISA reactivity (OD 405/minute x 1000) (OD405/min x 1000) [14]: 0
ELISA reactivity (OD 405/minute x 1000) (OD405/min x 1000) [15]: 0
fold lower endpoint dilution than for the GDF8 prohormone [16]: 3 fold
ELISA reactivity (OD 405/minute x 1000) (OD405/min x 1000) [17]: 102
ELISA reactivity (OD 405/minute x 1000) (OD405/min x 1000) [18]: 0
ELISA reactivity (OD 405/minute x 1000) (OD405/min x 1000) [19]: 0
ELISA reactivity (OD 405/minute x 1000) (OD405/min x 1000) [20]: 0
ELISA reactivity (OD 405/minute x 1000) (OD405/min x 1000) [21]: 0
ELISA reactivity (OD 405/minute x 1000) (OD405/min x 1000) [22]: 0
ELISA reactivity (OD 405/minute x 1000) (OD405/min x 1000) [23]: 0
fold higher response than against the U1 coat protein [24]: 3 fold
fold higher response than to TMV-FV6 and TMV-FV7 [25]: 2 fold and 3 fold
ELISA reactivity (OD 405/minute x 1000) (OD405/min x 1000) [26]: 127
endpoint dilution (reciprocal dilution) [27]: 270
endpoint dilution (reciprocal dilution) [28]: 21900
endpoint dilution higher than for DJ5(20) BSA (log10) [29]: 2
endpoint dilution (reciprocal dilution) [30]: 14600
endpoint dilution (reciprocal dilution) [31]: 180
% Inhibition of GDF8 Activity (in vitro transcriptional activation assay), 0.1 ug IgG [32]: 0%
% Inhibition of GDF8 Activity (in vitro transcriptional activation assay), 1.8 ug IgG [32]: 0%
% Inhibition of GDF8 Activity (in vitro transcriptional activation assay), 3.1 ug IgG [32]: 7%
% Inhibition of GDF8 Activity (in vitro transcriptional activation assay), 6.3 ug IgG [32]: 17%
% Inhibition of GDF8 Activity (in vitro transcriptional activation assay), 12.5 ug IgG [32]: 47%
ELISA reactivity (OD 405/minute x 1000) (OD405/min x 1000) [33]: 132
endpoint dilution (reciprocal dilution) [34]: < 20
endpoint dilution (reciprocal dilution) [35]: 4860
endpoint dilution (reciprocal dilution) [36]: 1620
ELISA reactivity (OD 405/minute x 1000) (OD405/min x 1000) [37]: 132

% Inhibition of GDF8 Activity (in vitro transcriptional activation assay), 250 ug IgG [32]: 7%
% Inhibition of GDF8 Activity (in vitro transcriptional activation assay, A204 cells, luciferase reporter), 250 ug IgG [32]: 0%
Substance: Normal goat IgG (purified from non-immunized goat sera, commercially purchased) (antibody)
